Measured values published in patent US20230272070A1 (published 2023).
Numbering of substitutions follows the chain as printed.

T1: human CD19 (human, UniProt P15391 20-556)
T1 construct: whole, on cells; also called huCD19
T1 sequence (looked up): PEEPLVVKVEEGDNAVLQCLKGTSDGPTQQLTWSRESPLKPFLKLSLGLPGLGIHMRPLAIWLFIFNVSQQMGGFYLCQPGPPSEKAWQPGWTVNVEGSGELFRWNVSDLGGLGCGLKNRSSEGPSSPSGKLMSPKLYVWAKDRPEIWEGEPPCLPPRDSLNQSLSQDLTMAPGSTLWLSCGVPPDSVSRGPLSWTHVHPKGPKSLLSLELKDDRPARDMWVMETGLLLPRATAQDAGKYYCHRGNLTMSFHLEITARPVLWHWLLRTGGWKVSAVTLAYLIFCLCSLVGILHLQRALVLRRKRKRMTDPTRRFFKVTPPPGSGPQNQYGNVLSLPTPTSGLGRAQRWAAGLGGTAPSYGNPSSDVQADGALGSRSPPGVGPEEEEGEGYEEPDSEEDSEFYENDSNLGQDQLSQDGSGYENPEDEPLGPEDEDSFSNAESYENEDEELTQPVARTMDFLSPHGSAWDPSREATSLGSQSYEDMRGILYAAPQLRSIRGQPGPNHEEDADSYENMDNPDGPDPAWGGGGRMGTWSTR

B1: F6 antibody (antibody, human IgG1, V domains shown)
VH: EVQLVQSGAEVKKPGESLKISCKGSGYSFTSYWIGWVRQMPGKGLEWMGIIYPGDSDTRYSPSFQGQVTISADKSISTAYLQWSSLKASDTAMYYCARVWYYDFWSGADAFDIWGQGTLVTVSS
VL: EIVMTQSPATLSVSPGERATLSCRASQSVSSNLAWYQQKPGQAPRLLIYGASTRATGIPARFSGSGSGTEFTLTISSLQSEDFAVYYCQQGSLEAPQTFGQGTKVEIK
notes: Tested as human IgG1; also called human IgG1 F6 anti-CD19 antibody
B2: 7F1 antibody (antibody, human IgG1, V domains shown)
VH: EVQLVQSGAEVKKPGESLKISCKGSGYSFTSYWIGWVRQMPGKGLEWMGIIYPGDSDTRYSPSFQGQVTISADKSISTAYLQWSSLKASDTAMYYCARGDYWTGFAYWGQGTLVTVSS
VL: QSVLTQPPSVSAAPGQKVTISCSGSSSNIGNNYVSWYQQLPGTAPKLLIYDNNKRPSGIPDRFSGSKSGTSATLGITGLQTGDEADYYCGTWDLGWNSVFGGGTKLTVL
notes: Tested as human IgG1; also called human IgG1 7F1 anti-CD19 antibody
B3: 9G8 antibody (antibody, human IgG1, V domains shown)
VH: EVQLVQSGAEVKKPGESLKISCKGSGYSFTSYWIGWVRQMPGKGLEWMGIIYPGDSDTRYSPSFQGQVTISADKSISTAYLQWSSLKASDTAMYYCARGVSGIYNLHGFDIWGQGTLVTVSS
VL: DIQMTQSPSSLSASVGDRVTITCRASQSISSYLNWYQQKPGKAPKLLIYAASSLQSGVPSRFSGSGSGTDFTLTISSLQPEDFATYYCQQGRFGSPFTFGQGTKVEIK
notes: also called human IgG1 9G8 anti-CD19 antibody
B4: 7F11 antibody (antibody, human IgG1, V domains shown)
VH: B3 VH
VL: B3 VL with R92M, F93W, G94D, S95N
notes: Tested as human IgG1; also called human IgG1 7F11 anti-CD19 antibody
B5: 5F5 antibody (antibody, human IgG1, V domains shown)
VH: B3 VH with V100I
VL: B3 VL with G91A, R92S, F93L, G94D, F97L
notes: Tested as human IgG1; also called human IgG1 5F5 anti-CD19 antibody
B6: 10D8 antibody (antibody, human IgG1, V domains shown)
VH: QVQLVQSGAEVKKPGSSVKVSCKASGGTFSSYAISWVRQAPGQGLEWMGGIIPIFGTANYAQKFQGRVTITADESTSTAYMELSSLRSEDTAVYYCARDRGYDYVWGSYRYGAFDIWGQGTLVTVSS
VL: QSALTQPASVSGSPGQSITISCTGTSSDVGGYNYVSWYQQHPGKAPKLMIYEVSNRPSGVSNRFSGSKSGNTASLTISGLQAEDEADYYCSSYDVWVPHMVFGGGTKLTVL
notes: Tested as human IgG1; also called human IgG1 10D8 anti-CD19 antibody

These binders were tested against T1, human CD19 (assay: flow cytometry on human versus cynomolgus PBMC; reference: binding to cynomolgus PBMC).
Method: The ability of various anti-CD19 antibodies of the disclosure to bind various peripheral blood mononuclear cells (PBMC). Human and cynomolgus PBMC from frozen aliquots in citrate buffer were tested. […] The PBMC were labelled with anti-CD20-PE monoclonal antibody (mAb), anti-CD14-FITC mAb, and anti-CD3-PerCP mAb cross-reactive both to human and cynomolgus species. Cell surface bound hIgG1 were detected with a mouse anti-human IgG Fc-APC mAb. FACS gating was performed with the anti-CD20 mAb for the B lymphocyte population, with the anti-CD3 for the T lymphocyte population and with anti-CD14 for the monocyte population.

Q: B1 was tested. Which “fold higher binding on human than on cynomolgus PBMC” value (“fold higher binding on human than” for short) did it give?
A: ≤ 10 fold

Q: How did the “fold higher binding on human than” value turn out when B2 was run?
A: ≤ 10 fold

Q: B3 was tested. Which “fold higher binding on human than” value did it give?
A: ≤ 10 fold

Q: How did the “fold higher binding on human than” value turn out when B4 was run?
A: ≤ 10 fold

Q: With B5 as the binder, how does the “fold higher binding on human than” value read?
A: ≤ 10 fold

Q: With B6 as the binder, how does the “fold higher binding on human than” value read?
A: ≤ 10 fold
